Numbering of substitutions follows the chain as printed.
B1: M1 (antibody, V domains shown)
VH: QVQLQESGPGLVKPSETLSLTCTVSGGSISTYYWSWIRQPPGKGLEWIGYIYYSGSTNYNPSLKSRVTISVDTSKNQFSLKLSSVTAADTAVYYCARYDIVTGYPHYYYYVMDVWGQGTTVTVSS
VL: AIQMTQSPSSLSASVGDRVTITCRASRGIRNALGWYQQKPGTAPKLLIYAASSLQSGVPSRFSGSGSGTDFTLTISSLQPEDSATYYCLQDYNYPLTFGGGTKVEIK
notes: Only variable domains are tied to M1; also called anti-IGFBP3 mAb M1; Anti-IGFBP3 M1
B2: E01 (antibody, V domains shown)
VH: QVQLVESGGGVVQPGRSLRLSCAASGFTFSSYGMHWVRQAPGKGLEWVAVISYDGSNKNYVDSVKGRFTISRDNSKNTLYLQMNSLRAEDTAVYYCARGGEYFYYYGLDVWGQGTTVTVSS
VL: EIVMTQSPATLSLSPGERATLSCRASQSVSSSSLSWYQQKPGQAPRLLIYGASTRATGIPARFSGSGSGTDFTLTISSLQPEDFAVYYCQQDYNLPLTFGGGTKVEIK
notes: From Trianni Mouse hybridomas: chimeric mAb with human VH and VK and mouse constant domains; also called anti-IGFBP3 mAb E01
B3: E19 (antibody, V domains shown)
VH: B2 VH
VL: AIQLTQSPSSLSASVGDRVTITCRAGQGISSALAWYQQKPGKAPKILIYDASSLESGVPSRFSGSGSGTDFTLTISSLQPEDFATYYCQQFNNYPSTFGQGTKLEIK
notes: From Trianni Mouse hybridomas: chimeric mAb with human VH and VK and mouse constant domains; also called anti-IGFBP3 mAb E19
B4: E02 (antibody, V domains shown)
VH: QVQLVQSGAEVKKPGASVKVSCKASGYTFSNYGISWVRQAPGQGLEWMGWINTYNGNTNYAQKLQGRVTMTTDTSTSTAYMALRGLRSDDTAVYYCARDRGYSSSPYYYYYGMDVWGQGTTVTVSS
VL: B2 VL with S33H, P96T, L97I, G101Q, K104R, V105L
notes: From Trianni Mouse hybridomas: chimeric mAb with human VH and VK and mouse constant domains; also called anti-IGFBP3 mAb E02
B5: E08 (antibody, V domains shown)
VH: B4 VH
VL: B2 VL
notes: From Trianni Mouse hybridomas: chimeric mAb with human VH and VK and mouse constant domains; also called anti-IGFBP3 mAb E08
B6: E14 (antibody, V domains shown)
VH: B4 VH
VL: DIQMTQSPSSLSASIGDRVTITCRASQGISNYLAWFQQKPGKAPKSLIYAASSLQSGVPSKFSGSGSGTDFTLTISSLQPEDFATYYCQQYNSYPFTFGPGTKVDIK
notes: From Trianni Mouse hybridomas: chimeric mAb with human VH and VK and mouse constant domains; also called anti-IGFBP3 mAb E14
B7: E20 (antibody, V domains shown)
VH: B4 VH
VL: DIQMTQSPSSLSASVGDRVTITCRASQGIRNDLGWYQQKPGKAPKRLIYAASSLQSGVPSRFSGSGSGTEFTLTISSLQPEDFATYYCLQHNSYPYTFGQGTKLEIK
notes: From Trianni Mouse hybridomas: chimeric mAb with human VH and VK and mouse constant domains; also called anti-IGFBP3 mAb E20
B8: E24 (antibody, V domains shown)
VH: B4 VH with S30T, T53A, D73V, S75Y, A82E, G85S
VL: B1 VL with R18K, R27Q
notes: From Trianni Mouse hybridomas: chimeric mAb with human VH and VK and mouse constant domains; also called anti-IGFBP3 mAb E24
B9: Human Ecto-TMEM219 (receptor)
chain: THRTGLRSPDIPQDWVSFLRSFGQLTLCPRNGTVTGKWRGSHVVGLLTTLNFGDGPDRNKTRTFQATVLGSQMGLKGSSAGQLVLITARVTTERTAGTCLYFSAVPGILPSSQPPISCSEEGAGNATLSPRMGEECVSVWSHEGLVLTKLLTSEELALCGSR
notes: Produced in E. coli by Genescript; In the ELISA it was detected with anti 6x His tag HRP, so it probably carries a His tag; also called extracellular domain of the TMEM219 receptor

What follows are binders tested against T1, Recombinant human IGFBP3 (human, UniProt P17936 28-291) (assay: Octet BLI; mAb captured via Fc on anti-mouse/anti-human IgG Fc biosensor, human IGFBP3 at 150 nM).
T1 construct: also called rhIGFBP3; hIGFBP3
T1 sequence (P17936 28-291 limits assumed): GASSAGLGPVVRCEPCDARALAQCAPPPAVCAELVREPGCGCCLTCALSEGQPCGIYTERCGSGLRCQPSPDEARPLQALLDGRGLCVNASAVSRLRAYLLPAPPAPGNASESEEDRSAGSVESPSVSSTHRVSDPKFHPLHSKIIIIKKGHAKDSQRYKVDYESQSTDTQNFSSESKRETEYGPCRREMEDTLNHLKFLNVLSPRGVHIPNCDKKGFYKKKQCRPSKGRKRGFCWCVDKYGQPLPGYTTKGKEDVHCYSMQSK
Protocol: The binding affinity measurements were performed using an Octet instrument (Octet BMIA), which is a Biolayer Interferometry (BLI) platform based on Biomolecular Interaction Analysis.

Row | Kd [nM] | Binder
1 | > 0.001 | B1
2 | 1.2 | B2
3 | 0.69 | B3
4 | > 0.001 | B4
5 | 0.61 | B5
6 | 0.85 | B6
7 | 0.85 | B7
8 | > 0.001 | B8

Each binder was assayed against T1, Recombinant human IGFBP3 (assay: ELISA: plate coated with rhIGFBP3 4 µg/ml, His-tagged ecto-TMEM219 10 µg/ml added, detection with anti-HisTag HRP, absorbance).
Protocol: We also employed a blocking reagent solution (3% BSA in PBS) and a diluent solution (0.5% BSA, 0.05% Tw in PBS).
Plate was incubated 90 minutes at 37° C. and washed with PBS (300 μl/well) and incubated with the blocking reagent (200 μl/well) 2 hours at room temperature. […] After washing steps, plate was then incubated at room temperature for 1 hour with anti 6× His tag HRP diluted 1:2000 in Diluent solution (50 μl/well). ELISA plate was then read after adding visualization solution at ELISAreader and adsorbance was measured.

Row | binding result | Binder
9 | binds | B9

Source: patent US20230039165A1 (ENTHERA S R L, published 2023)
